The source of these data is article PMC10475540, “The teleost fish PepT1-type peptide transporters and their relationships with neutral and charged substrates” (Frontiers in Physiology, 2023).

The target of one data set is T1, zfPepT1b (Danio rerio, UniProt Q7SYE4).
T1 construct: gene slc15a1b; complete ORF in pSPORT1, cRNA-injected Xenopus laevis oocytes
T1 sequence (Q7SYE4 1-718): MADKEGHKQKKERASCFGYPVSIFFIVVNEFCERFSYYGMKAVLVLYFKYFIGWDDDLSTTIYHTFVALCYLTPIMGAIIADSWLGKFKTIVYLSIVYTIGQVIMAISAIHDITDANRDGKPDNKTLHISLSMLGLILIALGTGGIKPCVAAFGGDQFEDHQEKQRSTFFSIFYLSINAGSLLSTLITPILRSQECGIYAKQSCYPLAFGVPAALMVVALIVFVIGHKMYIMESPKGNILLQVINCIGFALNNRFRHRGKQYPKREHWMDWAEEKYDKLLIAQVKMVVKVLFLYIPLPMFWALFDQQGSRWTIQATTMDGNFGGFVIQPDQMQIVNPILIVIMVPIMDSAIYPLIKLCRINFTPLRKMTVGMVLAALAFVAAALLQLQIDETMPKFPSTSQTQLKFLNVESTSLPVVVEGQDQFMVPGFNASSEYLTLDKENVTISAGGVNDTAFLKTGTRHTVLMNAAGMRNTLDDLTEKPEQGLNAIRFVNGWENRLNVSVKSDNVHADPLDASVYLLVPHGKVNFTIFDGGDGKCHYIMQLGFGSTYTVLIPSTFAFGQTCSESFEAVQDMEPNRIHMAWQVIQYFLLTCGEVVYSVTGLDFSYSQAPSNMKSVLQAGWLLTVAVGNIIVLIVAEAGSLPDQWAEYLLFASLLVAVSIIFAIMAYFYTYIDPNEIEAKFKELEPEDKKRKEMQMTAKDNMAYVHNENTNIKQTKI
As to the kind of experiment: two-electrode voltage clamp, transport current, Xenopus oocytes. It is filed as cell-based. The settings on record: 1 mmol/L, pH 7.6, -60 mV. Background: In two-electrode clamp one electrode senses voltage and the other passes current.

Substrate in data set [1]: NCC(=O)N[C@@H](CC(=O)O)C(=O)O
Described as above. The settings on record: pH 7.6, -60 mV, 18 degC incubation of oocytes, proton-coupled transport, 18.0 °C. It is filed as cell-based, Danio rerio. The text has this: (§1) two-electrode voltage clamp, transport current, Xenopus oocytes on zfPepT1a

Substrate in data set [2]: NCCCC[C@H](N)C(=O)NCC(=O)O
The description is as above. It is filed as cell-based, Danio rerio. Conditions: pH 7.6, -60 mV.
Text: as §1

Substrate in data set [3]: NCCCC[C@H](N)C(=O)NCC(=O)O
The data set is described as above. The class given is cell-based, Salmo salar. Conditions: pH 7.6, -140 mV, strongly voltage dependent.

Substrate in data set [4]: NCCCC[C@H](N)C(=O)NCC(=O)O
As to the kind of experiment: cells, lysate or membranes. Conditions: pH 7.6, -140 mV, estimate, saturation not reached up to 30 mmol/L.

Peptide text beside a SMILES is read from it.

Regarding `CSCC[C@H](NC(=O)[C@@H](N)CCCCN)C(=O)O` [Lys-Met], the “two-electrode voltage clamp, transport current, Xenopus oocytes” value at zfPepT1b is “in zebrafish PepT1b Lys-Met and Met-Lys show comparable currents”. Take `NCC(=O)N[C@@H](CCC(N)=O)C(=O)O` [Gly-Gln] (H-Gly-Gln-OH): the “two-electrode voltage clamp, transport current, Xenopus oocytes” value at zfPepT1b (reference substrate) was “Gly-Lys and Lys-Gly currents are significantly reduced in amplitude if compared to those generated by Gly-Gln”.

B1: zfPepT1a (Danio rerio) (protein)
chain: MPDSKMDETKKKKKKTAECCGYPISIFFIVVNEFCERFSYYGMRAVLVLYFRYFLLWDDDLATSIYHAFVALCYLTPILGAIIADSWLGKFKTIIYLSIVYAVGQVVMAVSTIHDITDANRDGTPDNFTLHIALSMLGLVLIALGTGGIKPCVAAFGGDQFQEHQSRQLNTFFSVFYLCINAGSLLSTLITPVLRAQECGIHTQQQCYPLAFGVPAALMVVSLVVFIAGSGMYTKTAPEGNIMGSVCKCIWFALNNRFRHRSDIYPKREHWMDWAEEKYDKLLIAQIKMVLKVLFLYIPLPMFWTLFDQKGSRWTLQATTMTGDFGGFVLQPDQMQTVNPILILTLVPIMDRIIFPLIKKCGLNFSPLKRMTVGMLFAATAFIAAALVQMEIDKTLPNFPSSSESQLKVVNMHSESLIVTVPSQEPLLIGSFESSPDYITFDQQDIRLAFNTTPEINKDLSLIKGSRQTLIIPSEPAEMYLKEDIKSKPKEGKNAVRFVNGWTAYLNITNLESSLQPSETSNYTLVSQGMRKFTLTDGIQSCEFSRKFGFGSSYTFLIPSDLFSTDCESIKEIEDMQPNSVHMALQIPQYFLITTGEVMFSVTGLQFSYSQAPKNMKSVLQAGWLCTNAVGNIIVLIVAELGKLPKQWAEYVLFASLLVAVSIIFSIMAYFYTYIDPAEIEAEILKQQETDPDKKKKKETLEMEEKENEQEIKQTKI
notes: complete ORF in pSPORT1, cRNA-injected Xenopus laevis oocytes
Turning to B1, the values for the K0.5 in data set [1] and in data set [2] were 5.89 ± 2.14 mmol/L and 18.35 ± 3.51 mmol/L, respectively.

B2: asPepT1b (Salmo salar) (protein)
chain: MTDIDVKKSKRKVDVCGYPLSIFFIVVNEFCERFSYYGMRAVLVLYFRYFLKWDDDLSTSIYHTFIALCYLTPILGAIVADSWLGKFKTIVYLSIVYTVGQVVMAVSAIHDITDTDRDGTPDNMTFHVAMSMVGLFLIALGTGGIKPCVAAFGGDQFEEHQEKQRSTFFSIFYLSINAGSLLSTVITPILRGQECGIHSQQKCYPLAFGVPAALMVVALIVFIMGSGMYNKTAPKGNIMLEVCKCIGFAVKNRFRHRSKKFPKREHWMDWADEKYDKLLVAQVKMVLKVMFLYIPLPMFWTLFDQQGSRWTLQATTMDGNFGILTVQPDQMQTVNPILILALVPIMDSLVYPLIKKCHLNFTPLKRMTVGMLIAALAFVAAALLQLQIDQTLPKLPQGVAGQVKFLNLNSAPLTLTIDGTIDVSVPAHQVNTGDYLTFDKSVRVVFNKNTSTGTDLILMSQTRRTALVSPTLDMNLVYDLSKKPDDGMNAIRFVNGLGSALNVTLGVGDIAPLAVSNYSLVPQGKAEFTIMNSGGASCLYSIDLGFGSAFTLLIPSTFTIGSPDCWQAIQVVEDIQPNTIHMGWQIPQYFLMTGGEVVFSVTGLEFSYSQAPSNMKSVLQAGWLFTVAVGNIIVLIVAEAAQLPDQWAEYILFASLLVVVCIVFAIMSYFYTYTDPAEIEAEFRQPEHGPERKRDQVEMERKDSDCSKSSKGSDMKKKDSVVEQLNQEVKQSKM
notes: as for B1
As to B2, the K0.5 in data set [3] is given as 0.18 ± 0.01 mmol/L.

B3: asPepT1a (Salmo salar) (protein)
chain: MTDEEVVKKGKSKEVCGYPLSIFFIVVNEFCERFSYYGMRAVLVLYFRYFLRFDDDLATSIYHTFVALCYLTPILGAVVADSWLGKFKTIIYLSIVYAIGQVVMAVSAIHDITDTDRDGTPDNLTLHIVLSMVGLLLIALGTGGIKPCVAAFGGDQFQDHQAKQRSTFFSVFYLCINGGSLLSTIITPILRGQECGIHSQQKCYPLAFGVPAALMVVALVVFIIGSGMYHKTEPQGNIMLDVCKCIGFAVKNRFRHRSSSYPKRTHWMDWAEEKYEKLLIAQIKMVLKVLFLYIPLPMFWTLFDQKGSRWTLQATTMDGNFGSLILQPDQMQTVNPILILTLVPIMDSVVYPLIKKCGLNFTPLRRMTVGMFLAAMAFVAAALVQIQIDKTLPTFPSSSQSQLKLLNMGSIPLTVTLPNNDPFVIEAAKANANYLTFEEESINVSFQSPAISRTISLAKGKRQTLLIPSNLSAPMWEMTDDLMAKPEQGANAIRFVNGMAGAVNVSTFGSIEYSSASNYSLISNGKATFTITNGANTCEYSREFGFGSSYTLLIPSHFAWGLTCSESISGVEDIQPNSFHMGWQIPQYFLITCGEVVFSVTGLEFSYSQAPSNMKAVLQAGWLFTVAIGNFIVLIVAEIAQIEEQWAEFVLFASLLVAVCVIFSIMAYFYTYMDPAEIEAQFTDNGGKEESDKEELQMQKKDVVDHHNEDDEAKQTKM
Regarding B3, the K0.5 in data set [4] is recorded as 6.33 ± 0.78 mmol/L.
